Experimental data reported in publication PMC7617869, “Molecular glues that inhibit deubiquitylase activity and inflammatory signaling” (Nature Structural & Molecular Biology, 2025).
“And” between values parts separate entries of the source, which are not always exact repeats. Identical values can stand only once.

How the values were obtained:
Type in all cases: biochemical
[1] = biological target: BRISC BRCC36 L169A (Homo sapiens, UniProt P46736+Q15018+Q9NXR7, L169A); assay: BRISC mutant IQF assay: BRCC36 L169A; conditions: SHMT2 50 nM
Protocol: (§1) IQF assays were performed in DUB reaction buffer containing 50 mM HEPES–NaOH pH 7.0, 100 mM NaCl, 0.1 mg ml^−1 BSA, 1 mM DTT and 0.03% v/v Brij-35. […] The final concentration of BRISC WT, all BRISC mutants, HsBRISCΔLoop, MmBRISC and DrBRISCΔNΔC was 1 nM. Other enzymes were tested at the following concentrations: 5 nM ARISC (FL), 10 nM CfBRISCΔNΔC, 250 nM AMSH* (ref. [43]), 500 nM USP2 and 1 μM trypsin (Sigma, 9002-07-7). For Michaelis–Menten experiments, 1 nM BRISC with 0–1 μM IQF K63-linked diubiquitin substrate was used. Michaelis–Menten analyses and Lineweaver–Burk plots were calculated using GraphPad Prism (version 9.0).
(§2) To assess enzymatic activity, BRISC complexes were diluted to concentrations between 1 nM and 50 nM. […] Then, 20-μl enzyme reactions were carried out in 384-well black flat-bottom low-flange plates (Corning, 35373). DUB activity was measured using IQF K63-linked diubiquitin (LifeSensors, DU6303) at 50 nM. Cleaved diubiquitin was monitored by measuring fluorescence intensity (excitation, 544 nm; emission, 575 nm; dichroic mirror, 560 nm). Fluorescence intensity was measured every minute for 30 min at 30 °C. Fluorescence intensity units were plotted against time to generate a linear reaction progress curve, where the initial velocity (V0) corresponds to the gradient of the curve (typically achieved within 15 min). IC50 values were calculated using the GraphPad Prism (version 9.0) built-in dose–response equation for inhibitor concentration versus response (variable slope).

[2] = biological target: BRISC Abraxas2 T140A (Homo sapiens, UniProt P46736+Q15018+Q9NXR7, T140A); assay: BRISC mutant IQF assay: Abraxas2 T140A; conditions: for Normalised V0: Abraxas2 T140A
Protocol: as §1, §2

[3] = biological target: BRISC BRCC36 W130A (Homo sapiens, UniProt P46736+Q15018+Q9NXR7, W130A); assay: BRISC mutant IQF assay: BRCC36 W130A
Protocol: as §1, §2

[4] = biological target: BRISC BRCC45 R137A (Homo sapiens, UniProt P46736+Q15018+Q9NXR7, R137A); assay: BRISC mutant IQF assay: BRCC45 R137A
Protocol: as §1, §2

[5] = biological target: T1, BRISC (Homo sapiens, UniProt P46736+Q15018+Q9NXR7); assay: BRISC DUB activity assay (IQF K63-linked diubiquitin); conditions: BRISC WT
T1 construct: made in house; host or cells: Spodoptera frugiperda (Sf9) insect cells, MultiBac
Protocol: as §1, §2

Normalised V0 [1]: 0.4474 and 0.4092 and 0.7591
SHMT2 inhibition of BRISC mutant ([2]; Abraxas 2 T140A): reduced BRISC inhibition by SHMT2
Normalised V0 ([2]; SHMT2 0.00347222 nM): 0.9459 and 1.003 and 1.126
Normalised V0 ([2]; SHMT2 0.0347222 nM): 0.9478 and 0.9048 and 1.065
Normalised V0 ([2]; SHMT2 0.347222 nM): 1.002 and 0.9158 and 1.209
Normalised V0 ([2]; SHMT2 1.04167 nM): 0.9422 and 0.8854 and 1.017
Normalised V0 ([2]; SHMT2 3.125 nM): 0.7382 and 0.7698 and 1.0401
Normalised V0 ([2]; SHMT2 6.25 nM): 0.8737 and 0.7897 and 1.032
Normalised V0 ([2]; SHMT2 12.5 nM): 0.7421 and 0.6608 and 0.8191
Normalised V0 ([2]; SHMT2 25 nM): 0.6241 and 0.5064 and 0.8208
Normalised V0 ([2]; SHMT2 100 nM): 0.3175 and 0.5076
Normalised V0 ([2]; SHMT2 200 nM): 0.2755 and 0.2287 and 0.3324
SHMT2 inhibition of BRISC mutant [3]: reduced BRISC inhibition by SHMT2
Normalised V0 ([3]; SHMT2 0.00347222 nM): 1.237 and 1.127 and 0.9914
Normalised V0 ([3]; SHMT2 0.0347222 nM): 1.202 and 1.0039 and 1.016
Normalised V0 ([3]; SHMT2 0.347222 nM): 1.306 and 1.037 and 1.029
Normalised V0 ([3]; SHMT2 1.04167 nM): 1.133 and 0.9683 and 1.009
Normalised V0 ([3]; SHMT2 3.125 nM): 1.059 and 0.8824 and 0.9607
Normalised V0 ([3]; SHMT2 6.25 nM): 1.076 and 0.9844 and 0.926
Normalised V0 ([3]; SHMT2 12.5 nM): 0.9633 and 0.8672 and 0.8727
Normalised V0 ([3]; SHMT2 25 nM): 0.8129 and 0.833 and 0.8407
Normalised V0 ([3]; SHMT2 50 nM): 0.7117 and 0.7254 and 0.8132
Normalised V0 ([3]; SHMT2 100 nM): 0.5212 and 0.5553 and 0.3708
Normalised V0 ([3]; SHMT2 200 nM): 0.4561 and 0.482 and 0.3879
Normalised V0 ([4]; SHMT2 0.00347222 nM): 1.014 and 1.027 and 1.065
Normalised V0 ([4]; SHMT2 0.0347222 nM): 1.097 and 0.9804 and 1.087
Normalised V0 ([4]; SHMT2 0.347222 nM): 0.9721 and 1.019 and 0.9944
Normalised V0 ([4]; SHMT2 1.04167 nM): 0.7112 and 0.6836 and 0.8504
Normalised V0 ([4]; SHMT2 3.125 nM): 0.4073 and 0.4138 and 0.6039
Normalised V0 ([4]; SHMT2 6.25 nM): 0.3218 and 0.2523 and 0.3959
Normalised V0 ([4]; SHMT2 12.5 nM): 0.1807 and 0.195 and 0.2065
Normalised V0 ([4]; SHMT2 25 nM): 0.1093 and 0.1844 and 0.1637
Normalised V0 ([4]; SHMT2 50 nM): 0.06765 and 0.12 and 0.1128
Normalised V0 ([4]; SHMT2 100 nM): 0.03288 and 0.04915 and 0.05253
SHMT2 inhibition of BRISC BRCC45 mutants ([4]; b47 speaks of all BRCC45 mutants): without affecting SHMT2 inhibition
Normalised V0 ([5]; SHMT2 0.00347222 nM): 0.9504 and 1.044 and 0.9816
Normalised V0 ([5]; SHMT2 0.0347222 nM): 0.8685 and 1.128 and 1.002
Normalised V0 ([5]; SHMT2 0.347222 nM): 0.5106 and 0.9767 and 0.8269
Normalised V0 ([5]; SHMT2 1.04167 nM): 0.4439 and 0.8387 and 0.81
B1: SHMT2: serine hydroxymethyltransferase 2, metabolic enzyme and endogenous inhibitor of BRISC DUB activity (protein)
chain: QLVRMAIRAQHSNAAQTQTGEANRGWTGQESLSDSDPEMWELLQREKDRQCRGLELIASENFCSRAALEALGSCLNNKYSEGYPGKRYYGGAEVVDEIELLCQRRALEAFDLDPAQWGVNVQPYSGSPANLAVYTALLQPHDRIMGLDLPDGGHLTHGYMSDVKRISATSIFFESMPYKLNPKTGLIDYNQLALTARLFRPRLIIAGTSAYARLIDYARMREVCDEVKAHLLADMAHISGLVAAKVIPSPFKHADIVTTTTHKTLRGTRSGLIFYRKGVKAVDPKTGREIPYTFEDRINFAVFPSLQGGPHNHAIAAVAVALKQACTPMFREYSLQVLKNARAMADALLERGYSLVSGGTDNHLVLVDLRPKGLDGARAERVLELVSITANKNTCPGDRSAITPGGLRLGAPALTSRQFREDDFRRVVDFIDEGVNIGLEVKSKTAKLQDFKSFLLKDSETSQRLANLRQRVEQFARAFPMPGFDEH
